The record followed here is PMC11685794 (Nature Communications, 2024).

The chains are these.
B1: CD163 SRCR 1-5 (residues 42-578) (domain or fragment)
chain: SSLGGTDKELRLVDGENKCSGRVEVKVQEEWGTVCNNGWSMEAVSVICNQLGCPTAIKAPGWANSSAGSGRIWMDHVSCRGNESALWDCKHDGWGKHSNCTHQQDAGVTCSDGSNLEMRLTRGGNMCSGRIEIKFQGRWGTVCDDNFNIDHASVICRQLECGSAVSFSGSSNFGEGSGPIWFDDLICNGNESALWNCKHQGWGKHNCDHAEDAGVICSKGADLSLRLVDGVTECSGRLEVRFQGEWGTICDDGWDSYDAAVACKQLGCPTAVTAIGRVNASKGFGHIWLDSVSCQGHEPAIWQCKHHEWGKHYCNHNEDAGVTCSDGSDLELRLRGGGSRCAGTVEVEIQRLLGKVCDRGWGLKEADVVCRQLGCGSALKTSYQVYSKIQATNTWLFLSSCNGNETSLWDCKNWQWGGLTCDHYEEAKITCSAHREPRLVGGDIPCSGRVEVKHGDTWGSICDSDFSLEAASVLCRELQCGTVVSILGGAHFGEGNGQIWAEEFQCEGHESHLSLCPVAPRPEGTCSHSRDVGVVCS
B2: hemoglobin (Hb) (complex)
chain 1: not shown
chain 2: not shown

For experiment [1], the target named is haptoglobin-hemoglobin complex, Hp(1-1)Hb (αβHb bound to dimeric Hp1-1) (human, UniProt P00738-2;P00738;P69905;P68871). As to the kind of experiment: SPR. A general note: In SPR one partner is held on a chip, and binding of the other changes the refractive index at the surface.
Experiment [2] addresses B1. The experiment is described as follows: SPR.

For orientation: Kd means the free concentration of one partner at which half of the binding sites on the other are occupied at equilibrium, for simple one-to-one binding.

In turn, B1 registered a Kd in experiment [1] of 0.766 µM. B2 came in with a Kd in experiment [2] of 43.8 µM.
